Results on one protein are retold here after PMC5362085, “Differential effects of DEAE negative mode chromatography and gel-filtration chromatography on the charge status of Helicobacter pylori neutrophil-activating protein” (PLoS ONE, 2017).

This series concerns the molecule itself. The series is described as follows: native gel or EMSA; native-PAGE (10% gel) of the load (soluble E. coli lysate), unbound, wash and elution fractions of DEAE Sepharose and DEAE Sephadex batch chromatography, 20 mM Tris-HCl, 50 mM NaCl, pH 7.0 to 9.0 at 25°C; unbound fractions more than 90% pure.

B1: Helicobacter pylori neutrophil-activating protein (natural protein)
chain: MKTFEILKHLQADAIVLFMKVHNFHWNVKGTDFFNVHKATEEIYEEFADMFDDLAERIVQLGHHPLVTLSEAIKLTRVKEETKTSFHSKDIFKEILEDYKYLEKEFKELSNTAEKEGDKVTVTYADDQLAKLQKSIWMLQAHLA
notes: HP-NAP, product of the napA gene (HP0243) amplified from genomic DNA of H. pylori strain 26695; subunit of approximately 17 kDa; It states no tag and speaks of recombinant HP-NAP in its native form; its own experiments show only an oligomer; also called HP-NAP; recombinant HP-NAP; source: E. coli BL21(DE3) (pET42a-NAP, IPTG); in soluble lysate and DEAE batch chromatography fractions; copies: 12
As for B1, the binding result is on record as “binds”.
